Results published in publication PMC5964048.

Molecular target: Fluorescein-labeled murine N-WASP-VCA (a.a. 399-501) (murine) (UniProt Q91YD9)
Assay: fluorescence polarisation

In the case of “ACD-cross-linked actin oligomers (from UniProt P68135 1-377)”, the Kd is reported as 8 nM.
